Measured values reported in the supplement of paper PMC9112550, “Optimization of the antimicrobial peptide Bac7 by deep mutational scanning” (BMC Biology, 2022).

test system: Escherichia coli TOP10; assay: shrunken log2 fold change of peptide-encoding DNA abundance (4.5 h post-induction vs induction); higher = less antimicrobial activity (less host growth inhibition); details: time post-induction: 4.5 h; library: site-saturation at positions 5, 18, 19, 20
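Further: peptides expressed intracellularly from a pBAD plasmid library in pooled LB shake-flask culture, induced with 0.3% L-arabinose, DNA abundance read by NGS, three biological replicates, DESeq2 with apeglm shrinkage.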

Sequence | shrunken log2 fold change
RRIRDRPPRLPRPRPRPDVRPRP | 0.0212
RRIRWRPPRLPRPRPRPVMRPRP | 0.0188
RRIRDRPPRLPRPRPRPSLSPRP | -0.0503
RRIRDRPPRLPRPRPRPLHCPRP | -0.145
RRIRIRPPRLPRPRPRPKFIPRP | -0.375
RRIRDRPPRLPRPRPRPCVTPRP | 0.163
RRIRFRPPRLPRPRPRPFSGPRP | -0.0879
RRIRFRPPRLPRPRPRPSQYPRP | -0.292
RRIRCRPPRLPRPRPRPETAPRP | 0.308
RRIRCRPPRLPRPRPRPDWNPRP | -0.523
RRIRKRPPRLPRPRPRPGWKPRP | 0.0274
RRIRGRPPRLPRPRPRPCITPRP | 0.158
RRIRLRPPRLPRPRPRPFPTPRP | -0.158
RRIRDRPPRLPRPRPRPMHLPRP | -0.339
RRIRVRPPRLPRPRPRPFCIPRP | -0.447
RRIRQRPPRLPRPRPRPTDYPRP | -0.116
RRIRYRPPRLPRPRPRPCLAPRP | -0.838
RRIRIRPPRLPRPRPRPKLMPRP | -0.171
RRIRARPPRLPRPRPRPFFVPRP | 0.149
RRIRYRPPRLPRPRPRPYWNPRP | -1.63

Sequence | shrunken log2 fold change
RRIRFRPPRLPRPRPRPPVPPRP | 0.859
RRIRLRPPRLPRPRPRPYRAPRP | -0.21
RRIRWRPPRLPRPRPRPMQKPRP | -0.0122
RRIRCRPPRLPRPRPRPWENPRP | 0.0328
RRIRRRPPRLPRPRPRPANCPRP | 0.00326
RRIRCRPPRLPRPRPRPYRDPRP | -0.16
RRIRKRPPRLPRPRPRPHWYPRP | 0.0533
RRIRTRPPRLPRPRPRPVLMPRP | 0.187
RRIRQRPPRLPRPRPRPMHLPRP | -0.157
RRIRWRPPRLPRPRPRPGMFPRP | 0.281
RRIRYRPPRLPRPRPRPKNGPRP | 0.013
RRIRCRPPRLPRPRPRPNYIPRP | -0.84
RRIRDRPPRLPRPRPRPIQTPRP | 0.00408
RRIRCRPPRLPRPRPRPTKNPRP | 0.142
RRIRVRPPRLPRPRPRPCQYPRP | -0.53
RRIRQRPPRLPRPRPRPQDLPRP | -0.243
RRIRDRPPRLPRPRPRPQDVPRP | -0.254
RRIRTRPPRLPRPRPRPLAGPRP | 0.0232
RRIRYRPPRLPRPRPRPECMPRP | -0.417
RRIRARPPRLPRPRPRPDRTPRP | 0.192

Sequence | shrunken log2 fold change
RRIRARPPRLPRPRPRPVVHPRP | 0.297
RRIRDRPPRLPRPRPRPQIDPRP | -0.0493
RRIRKRPPRLPRPRPRPKPIPRP | 0.742
RRIRYRPPRLPRPRPRPHKPPRP | -0.171
RRIRFRPPRLPRPRPRPMHIPRP | -0.419
RRIRFRPPRLPRPRPRPYYFPRP | -0.706
RRIRGRPPRLPRPRPRPWRWPRP | 0.656
RRIRFRPPRLPRPRPRPAQYPRP | -0.574
RRIRERPPRLPRPRPRPLVRPRP | -0.192
RRIRERPPRLPRPRPRPKPKPRP | 0.0931
RRIRRRPPRLPRPRPRPLTVPRP | 0.0344
RRIRQRPPRLPRPRPRPLQWPRP | 0.123
RRIRYRPPRLPRPRPRPDRWPRP | -0.118
RRIRERPPRLPRPRPRPGCMPRP | -0.00389
RRIRWRPPRLPRPRPRPDLQPRP | -0.0193
RRIRGRPPRLPRPRPRPHNRPRP | 0.0391
RRIRCRPPRLPRPRPRPPKMPRP | 0.222
RRIRHRPPRLPRPRPRPRWKPRP | 0.00489
RRIRSRPPRLPRPRPRPQLQPRP | 0.104
RRIRFRPPRLPRPRPRPMTHPRP | -0.401
